Assay results published in paper PMC4568394, “Differentially expressed seed aging responsive heat shock protein OsHSP18.2 implicates in seed vigor, longevity and improves germination and seedling establishment under abiotic stress” (Frontiers in Plant Science, 2015).

Target: the molecule itself
Assay: SEC; Superose 6 column; purified OsHSP18.2 run with molecular weight markers, Ve/Vo against log molecular weight; homooligomer

B1: OsHSP18.2, a class II cytosolic small heat shock protein of rice (6X His tagged recombinant) (natural protein, Oryza sativa indica var. PB-1, UniProt Q5VRY1 1-166, looked up)
chain: MESAMFGLETPLMTALQHLLDIPDGEGGAAGKQGATGGPTRAYVRDARAMAATPADVKDLPGAYAFVVDMPGLKSSDIKVQVEEERLLVISGERRRGGGEEEKEESCKYLRMERRMGKFMRKFVLPDNADVDKISAVCQDGVLTVTVEKLPPPEPKKPKTIEVKVA
notes: OsHSP18.2, class II heat shock protein, Oryza sativa indica var; complete ORF / CDS, 166 aa, predicted 18.2 kDa; the indica PB-1 clone may differ from it; pET23b usually adds a C-terminal His6 tag; copies: 12
stoichiometry N: ~12 subunits
